Where a chain is given by its changes, count along the chain named.
B1: single-domain antibody directed against Tenascin-C (TNC) Nb3 (VHH)
VHH: WLQLVESGGGSVQTGGSLRLSCVVSGYTNSIYTLAWFRQAPGKEREGVAAIGSRNGNTYYDASVKDRFTISLDKAKNTVYLQMNDLKPEDTASYYCAAGSSWDLILQAYAYDYWGQGTQVTVSS
modifications: Conjugated to 5 nm colloidal gold in the electron microscopy assay only.
notes: also called C3
B2: single-domain antibody directed against Tenascin-C (TNC) Nb4 (VHH)
VHH: B1 VHH with L2V, G52A, D85G
modifications: Conjugated to 5 nm colloidal gold in the electron microscopy assay only.
notes: Dromedary VHH made in the E. coli WK6 periplasm and purified by IMAC; Conjugated to 5 nm colloidal gold for electron microscopy; also called C4

Tests used:
[1] = biological target: T1, recombinant human Tenascin-C (rhTNC) (human); assay: indirect ELISA on rhTNC, Nb dilutions 5x10^-7 M to 5x10^-12 M
T1 construct: It was purified on a Ni column, but no tag is described; also called recombinant hTNC

[2] = biological target: T2, recombinant murine TNC (mTNC) (murine); assay: isothermal fluorescence titration, fluorescently tagged mTNC 700 nM, Nb 500-3500 nM
T2 construct: also called recombinant mTNC

Binder | EC50 [1] | Kd [2]
B1 | ~10 nM | 711 nM
B2 | ~5 nM | 537 nM

Reference: patent EP4047016A1 (Université de Strasbourg, dated 2022)
